Target: T1, human xylosyltransferase 1 (XT1), residues 232-959 (human, UniProt Q86Y38 232-959, N-linked glycosylation at N777)
T1 construct: human xylosyltransferase 1 (XT1), residues 232-959, amplified from a Dharmacon cDNA clone; The vector is a modified pCEP-Pu (pCEP-Pu-N-His-TEV, Pulido et al., 2017); also called peptide O-xylosyltransferase; XYLT1; source: FreeStyle 293-F (HEK293-F) cells, transfected, secreted; purified (HisTrap Excel, HiTrap Heparin, Superdex 200); not shown: His-tag (TEV protease-cleavable), N-terminal, kept
T1 sequence (looked up): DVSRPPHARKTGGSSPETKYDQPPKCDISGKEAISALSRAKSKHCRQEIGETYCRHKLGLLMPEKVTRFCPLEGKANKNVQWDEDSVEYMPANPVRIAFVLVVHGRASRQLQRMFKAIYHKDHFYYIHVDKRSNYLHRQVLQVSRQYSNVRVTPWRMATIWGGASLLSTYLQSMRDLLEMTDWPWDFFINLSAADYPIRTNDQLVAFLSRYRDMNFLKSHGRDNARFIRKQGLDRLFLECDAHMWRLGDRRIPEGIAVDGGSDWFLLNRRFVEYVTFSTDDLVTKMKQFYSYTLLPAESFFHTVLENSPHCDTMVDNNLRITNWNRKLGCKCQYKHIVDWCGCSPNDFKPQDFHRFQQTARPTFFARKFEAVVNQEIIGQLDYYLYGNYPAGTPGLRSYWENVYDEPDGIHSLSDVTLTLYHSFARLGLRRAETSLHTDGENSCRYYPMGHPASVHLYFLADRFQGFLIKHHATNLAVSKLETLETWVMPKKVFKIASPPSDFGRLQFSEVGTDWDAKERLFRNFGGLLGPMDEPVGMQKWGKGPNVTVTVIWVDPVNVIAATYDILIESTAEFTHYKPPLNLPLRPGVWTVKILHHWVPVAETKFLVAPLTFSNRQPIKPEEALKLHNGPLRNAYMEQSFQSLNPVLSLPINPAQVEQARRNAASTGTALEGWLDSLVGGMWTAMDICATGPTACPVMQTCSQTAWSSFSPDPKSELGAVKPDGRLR
Assay: crystal structure; XT1 crystals (hanging drop, Morpheus condition, pH 7.5) soaked with peptide (0.5 or 0.7 mM); for peptide 2 together with UDP-xylose (3.5 mM), giving a ternary complex
Settings: both partners purified

B1: Peptide 8 (syndecan 1-derived acceptor peptide) (peptide)
peptide: PAAEGSGEQDFT
notes: syndecan 1 around the acceptor serine S206; position 0 is the acceptor serine; source: synthetic peptide (Genscript)
Does B1 bind?
Result: binds

B2: Peptide 1 (bikunin-derived acceptor peptide, wild-type sequence) (peptide)
peptide: QEEEGSGGGQGG
notes: bikunin (part of the AMBP precursor) around the acceptor serine S215; position 0 is the acceptor serine; also called active peptide 1; bikunin-derived peptide 1; source: synthetic peptide (Genscript)
Does B2 bind?
Result: binds

B3: Peptide 2 (inactive bikunin-derived peptide, acceptor serine replaced by alanine) (peptide)
peptide: QEEEGAGGGQGG
notes: bikunin (part of the AMBP precursor) around the acceptor site S215, with the acceptor serine changed to alanine; source: synthetic peptide (Genscript)
Does B3 bind?
Result: binds

Source: PMC5992326, “Structural Basis for the Initiation of Glycosaminoglycan Biosynthesis by Human Xylosyltransferase 1” (Structure(London, England:1993), 2018)
